This note sets out measurements from US20260201347A1, “ARTIFICIAL BIFUNCTIONAL ENZYME COMPRISING A MYELOPEROXIDASE ACTIVITY AND A GLUCOSE OXIDASE ACTIVITY AND APPLICATIONS THEREOF” (UNIVERSITÉ DE BORDEAUX, priority 2022, published 2026).

Type in all cases: biochemical, Rhodopirellula baltica / Penicillium amagasakiens
Settings in all cases: fixed NaCl 20 mM, pH7.5, pH 7.5

Substrate in data set [1]: OC[C@H]1OC(O)[C@H](O)[C@@H](O)[C@@H]1O
In words: Coupled active sites, HOCl production from glucose, APF assay (Table 9), linker LEKRPEAEA
The method, then: (§1) Each experiment was performed in triplicate.
(§2) The activity of the two active sites was then assessed in conjunction to each other (FIG. 1).
(§3) Briefly, the aim was to measure the production of HOCl from glucose and NaCl as respective substrates of the enzymes, using the APF probe. Two types of kinetics were performed: • i) kinetics at various concentrations of glucose and a fixed concentration of NaCl, and • ii) kinetics at various concentration of NaCl and a fixed concentration of glucose.

Substrate in data set [2]: OC[C@H]1OC(O)[C@H](O)[C@@H](O)[C@@H]1O
The experiment in a line: Coupled active sites, HOCl production from glucose, APF assay (Table 9), linker LEGGEAEA
The method, then: as §1, §2, §3

Substrate in data set [3]: OC[C@H]1OC(O)[C@H](O)[C@@H](O)[C@@H]1O
In words: Coupled active sites, HOCl production from glucose, APF assay (Table 9), linker GGGGGGGG
The method, then:
as §1, §2, §3

As usually defined, the Km is the concentration of substrate that gives half-maximal velocity. Broadly, the kcat is the number of substrate molecules converted per active site and unit of time at saturation. Usually kcat/Km stands for the second-order rate constant that governs catalysis at low substrate concentration.

B1: RbMPO-LEKRPEAEA-GOx chimera (Rhodopirellula baltica myeloperoxidase, SEQ ID NO: 10; linker SEQ ID NO: 8; Penicillium amagasakiens glucose oxidase, SEQ ID NO: … (protein)
chain: MLFWSKRTRKHPGRKRRRLRSEQLESRQLLAADFGGYRHNIYDAEDVNDDGRVSAIDALLVINAMTSETSRDENVFTDVNGDGRRSALDALRVINRIERGDVFPIDTSGDEDLNTLLPEMPSEVRSIDGSGNNPNDHLWGSVGQRLIRMAPAAYGDGISTLAGANRPSAREVSNVLSAMNTSQVLNDRGLSAFVYVWGQFIDHDLGLTESDEHGEAIDISVPEGDLWFDPMGSGEAVIPMTRTPIADGTGTSVGNPAQQFNQITAFIDGSMVYGSDAATAERLRTFAGGRLAISDNGLLPMDESGMVIAGDVRASENVGLTAIQTLFVREHNRLADEIFAADPEATDEEIYQRARLVVASLIQSITYNEFLPALLGQRAMDSYRGYDASVNPGIANEFSTAAFRLGHSTLRDEVGFMSNDGRESKDEMELKDAFFHASMLEETGIDSLLKFDASVQAQEIDLAVVDSLRNFLFGPPGAGGLDLVAMNIQRGRDHGLSDYNTTRQAYGLDRVETFDQITGDVELQQKLASLYGTVDNIDLWVGLMAEDHQHDASVGELTGLIIADQFQRTRDGDRFFYKNVLTDSEVESIERSTLADLIERNTSVDGLQENVFFMQVELRGRVILASSIPPNTMPSEVREEEIRGVSGMAIELIDASGKLVDSTVSDQHGNYRFRALSETGDYQVRLSESGEAMDVLVAHGAERIRGLDFIVLALEKRPEAEAYLPAQQIDVQSSLLSDPSKVAGKTYDYIIAGGGLTGLTVAAKLTENPKIKVLVIEKGFYESNDGAIIEDPNAYGQIFGTTVDQNYLTVPLINNRTNNIKAGKGLGGSTLINGDSWTRPDKVQIDSWEKVFGMEGWNWDNMFEYMKKAEAARTPTAAQLAAGHSFNATCHGTNGTVQSGARDNGQPWSPIMKALMNTVSALGVPVQQDFLCGHPRGVSMIMNNLDENQVRVDAARAWLLPNYQRSNLEILTGQMVGKVLFKQTASGPQAVGVNFGTNKAVNFDVFAKHEVLLAAGSAISPLILEYSGIGLKSVLDQANVTQLLDLPVGINMQDQTTTTVSSRASSAGAGQGQAVFFANFTETFGDYAPQARDLLNTKLDQWAEETVARGGFHNVTALKVQYENYRNWLLDEDVAFAELFMDTEGKINFDLWDLIPFTRGSVHILSSDPYLWQFANDPKFFLNEFDLLGQAAASKLARDLTSQGAMKEYFAGETLPGYNLVQNATLSQWSDYVLQNFRPNWHAVSSCSMMSRELGGVVDATAKVYGTQGLRVIDGSIPPTQVSSHVMTIFYGMALKVADAILDDYAKSA
notes: 6His (in the pET21a vector behind the XhoI site); made in house; host or cells: E. coli BL21Star (DE3)
Consider B1, for which the figures for the Km in data set [1] (other: dimer/monomer), in data set [1] (other: excluded) and in data set [1] (other: trimer) were 2160 ± 1480 µM, 22600 ± 6500 µM and 1056 ± 496 µM, respectively. Besides, the values for the catalytic constant (kcat) in data set [1] (other: dimer/monomer), in data set [1] (other: excluded) and in data set [1] (other: trimer) were 0.000642 s⁻¹, 0.000365 s⁻¹ and 0.000156 s⁻¹, respectively. Further, the kcat/Km was 0.298 ± 0.235 M⁻¹ s⁻¹ in data set [1] (other: dimer/monomer), 0.016 ± 0.005 M⁻¹ s⁻¹ in data set [1] (other: excluded) and 0.148 ± 0.081 M⁻¹ s⁻¹ in data set [1] (other: trimer).

B2: RbMPO-LEGGEAEA-GOx chimera (Rhodopirellula baltica myeloperoxidase, SEQ ID NO: 10; linker SEQ ID NO: 4; Penicillium amagasakiens glucose oxidase, SEQ ID NO: … (protein)
chain: MLFWSKRTRKHPGRKRRRLRSEQLESRQLLAADFGGYRHNIYDAEDVNDDGRVSAIDALLVINAMTSETSRDENVFTDVNGDGRRSALDALRVINRIERGDVFPIDTSGDEDLNTLLPEMPSEVRSIDGSGNNPNDHLWGSVGQRLIRMAPAAYGDGISTLAGANRPSAREVSNVLSAMNTSQVLNDRGLSAFVYVWGQFIDHDLGLTESDEHGEAIDISVPEGDLWFDPMGSGEAVIPMTRTPIADGTGTSVGNPAQQFNQITAFIDGSMVYGSDAATAERLRTFAGGRLAISDNGLLPMDESGMVIAGDVRASENVGLTAIQTLFVREHNRLADEIFAADPEATDEEIYQRARLVVASLIQSITYNEFLPALLGQRAMDSYRGYDASVNPGIANEFSTAAFRLGHSTLRDEVGFMSNDGRESKDEMELKDAFFHASMLEETGIDSLLKFDASVQAQEIDLAVVDSLRNFLFGPPGAGGLDLVAMNIQRGRDHGLSDYNTTRQAYGLDRVETFDQITGDVELQQKLASLYGTVDNIDLWVGLMAEDHQHDASVGELTGLIIADQFQRTRDGDRFFYKNVLTDSEVESIERSTLADLIERNTSVDGLQENVFFMQVELRGRVILASSIPPNTMPSEVREEEIRGVSGMAIELIDASGKLVDSTVSDQHGNYRFRALSETGDYQVRLSESGEAMDVLVAHGAERIRGLDFIVLALEGGEAEAYLPAQQIDVQSSLLSDPSKVAGKTYDYIIAGGGLTGLTVAAKLTENPKIKVLVIEKGFYESNDGAIIEDPNAYGQIFGTTVDQNYLTVPLINNRTNNIKAGKGLGGSTLINGDSWTRPDKVQIDSWEKVFGMEGWNWDNMFEYMKKAEAARTPTAAQLAAGHSFNATCHGTNGTVQSGARDNGQPWSPIMKALMNTVSALGVPVQQDFLCGHPRGVSMIMNNLDENQVRVDAARAWLLPNYQRSNLEILTGQMVGKVLFKQTASGPQAVGVNFGTNKAVNFDVFAKHEVLLAAGSAISPLILEYSGIGLKSVLDQANVTQLLDLPVGINMQDQTTTTVSSRASSAGAGQGQAVFFANFTETFGDYAPQARDLLNTKLDQWAEETVARGGFHNVTALKVQYENYRNWLLDEDVAFAELFMDTEGKINFDLWDLIPFTRGSVHILSSDPYLWQFANDPKFFLNEFDLLGQAAASKLARDLTSQGAMKEYFAGETLPGYNLVQNATLSQWSDYVLQNFRPNWHAVSSCSMMSRELGGVVDATAKVYGTQGLRVIDGSIPPTQVSSHVMTIFYGMALKVADAILDDYAKSA
notes: as for B1
Consider B2, for which the Km in data set [2] (other: dimer/monomer) turned out to be 629 ± 295 µM; in data set [2] (other: excluded), 65600 ± 14200 µM; in data set [2] (other: monomer 1), 8820 ± 4870 µM; in data set [2] (other: monomer 2) it was 1380 ± 671 µM. The kcat in data set [2] (other: dimer/monomer) turned out to be 0.000315 s⁻¹; in data set [2] (other: excluded), 0.00056 s⁻¹; in data set [2] (other: monomer 1) it was 0.00123 s⁻¹; in data set [2] (other: monomer 2), 0.00377 s⁻¹. Moreover, the kcat/Km in data set [2] (other: dimer/monomer) came to 0.5 ± 0.259 M⁻¹ s⁻¹; in data set [2] (other: excluded) it was 0.00853 ± 0.00215 M⁻¹ s⁻¹; in data set [2] (other: monomer 1), 0.139 ± 0.095 M⁻¹ s⁻¹; in data set [2] (other: monomer 2), 2.73 ± 1.5 M⁻¹ s⁻¹.

B3: RbMPO-GGGGGGGG-GOx chimera (Rhodopirellula baltica myeloperoxidase, SEQ ID NO: 10; linker SEQ ID NO: 9; Penicillium amagasakiens glucose oxidase, SEQ ID NO: … (protein)
chain: MLFWSKRTRKHPGRKRRRLRSEQLESRQLLAADFGGYRHNIYDAEDVNDDGRVSAIDALLVINAMTSETSRDENVFTDVNGDGRRSALDALRVINRIERGDVFPIDTSGDEDLNTLLPEMPSEVRSIDGSGNNPNDHLWGSVGQRLIRMAPAAYGDGISTLAGANRPSAREVSNVLSAMNTSQVLNDRGLSAFVYVWGQFIDHDLGLTESDEHGEAIDISVPEGDLWFDPMGSGEAVIPMTRTPIADGTGTSVGNPAQQFNQITAFIDGSMVYGSDAATAERLRTFAGGRLAISDNGLLPMDESGMVIAGDVRASENVGLTAIQTLFVREHNRLADEIFAADPEATDEEIYQRARLVVASLIQSITYNEFLPALLGQRAMDSYRGYDASVNPGIANEFSTAAFRLGHSTLRDEVGFMSNDGRESKDEMELKDAFFHASMLEETGIDSLLKFDASVQAQEIDLAVVDSLRNFLFGPPGAGGLDLVAMNIQRGRDHGLSDYNTTRQAYGLDRVETFDQITGDVELQQKLASLYGTVDNIDLWVGLMAEDHQHDASVGELTGLIIADQFQRTRDGDRFFYKNVLTDSEVESIERSTLADLIERNTSVDGLQENVFFMQVELRGRVILASSIPPNTMPSEVREEEIRGVSGMAIELIDASGKLVDSTVSDQHGNYRFRALSETGDYQVRLSESGEAMDVLVAHGAERIRGLDFIVLAGGGGGGGGYLPAQQIDVQSSLLSDPSKVAGKTYDYIIAGGGLTGLTVAAKLTENPKIKVLVIEKGFYESNDGAIIEDPNAYGQIFGTTVDQNYLTVPLINNRTNNIKAGKGLGGSTLINGDSWTRPDKVQIDSWEKVFGMEGWNWDNMFEYMKKAEAARTPTAAQLAAGHSFNATCHGTNGTVQSGARDNGQPWSPIMKALMNTVSALGVPVQQDFLCGHPRGVSMIMNNLDENQVRVDAARAWLLPNYQRSNLEILTGQMVGKVLFKQTASGPQAVGVNFGTNKAVNFDVFAKHEVLLAAGSAISPLILEYSGIGLKSVLDQANVTQLLDLPVGINMQDQTTTTVSSRASSAGAGQGQAVFFANFTETFGDYAPQARDLLNTKLDQWAEETVARGGFHNVTALKVQYENYRNWLLDEDVAFAELFMDTEGKINFDLWDLIPFTRGSVHILSSDPYLWQFANDPKFFLNEFDLLGQAAASKLARDLTSQGAMKEYFAGETLPGYNLVQNATLSQWSDYVLQNFRPNWHAVSSCSMMSRELGGVVDATAKVYGTQGLRVIDGSIPPTQVSSHVMTIFYGMALKVADAILDDYAKSA
notes: as for B1
Regarding B3, the Michaelis constant (Km) amounted to 2060 ± 1290 µM in data set [3] (other: dimer/monomer), 2760 ± 1060 µM in data set [3] (other: excluded), 6196 ± 951 µM in data set [3] (other: monomer) and 3610 ± 2110 µM in data set [3] (other: trimer). Also, the catalytic constant (kcat) in data set [3] (other: dimer/monomer) is 0.00155 s⁻¹; in data set [3] (other: excluded), 0.000102 s⁻¹; in data set [3] (other: monomer) it was 0.000512 s⁻¹; in data set [3] (other: trimer), 0.000589 s⁻¹. Moreover, the kcat/Km amounted to 0.754 ± 0.545 M⁻¹ s⁻¹ in data set [3] (other: dimer/monomer), 0.037 ± 0.017 M⁻¹ s⁻¹ in data set [3] (other: excluded), 0.083 ± 0.015 M⁻¹ s⁻¹ in data set [3] (other: monomer) and 0.163 ± 0.129 M⁻¹ s⁻¹ in data set [3] (other: trimer).
